Experimental data reported in US20230025129A1 (KYMAB, published 2023).
Numbering of substitutions follows the chain as printed.

T1: human MTP-2 expressed on HEK293 cells (human, UniProt Q8IU80 1-811)
T1 sequence: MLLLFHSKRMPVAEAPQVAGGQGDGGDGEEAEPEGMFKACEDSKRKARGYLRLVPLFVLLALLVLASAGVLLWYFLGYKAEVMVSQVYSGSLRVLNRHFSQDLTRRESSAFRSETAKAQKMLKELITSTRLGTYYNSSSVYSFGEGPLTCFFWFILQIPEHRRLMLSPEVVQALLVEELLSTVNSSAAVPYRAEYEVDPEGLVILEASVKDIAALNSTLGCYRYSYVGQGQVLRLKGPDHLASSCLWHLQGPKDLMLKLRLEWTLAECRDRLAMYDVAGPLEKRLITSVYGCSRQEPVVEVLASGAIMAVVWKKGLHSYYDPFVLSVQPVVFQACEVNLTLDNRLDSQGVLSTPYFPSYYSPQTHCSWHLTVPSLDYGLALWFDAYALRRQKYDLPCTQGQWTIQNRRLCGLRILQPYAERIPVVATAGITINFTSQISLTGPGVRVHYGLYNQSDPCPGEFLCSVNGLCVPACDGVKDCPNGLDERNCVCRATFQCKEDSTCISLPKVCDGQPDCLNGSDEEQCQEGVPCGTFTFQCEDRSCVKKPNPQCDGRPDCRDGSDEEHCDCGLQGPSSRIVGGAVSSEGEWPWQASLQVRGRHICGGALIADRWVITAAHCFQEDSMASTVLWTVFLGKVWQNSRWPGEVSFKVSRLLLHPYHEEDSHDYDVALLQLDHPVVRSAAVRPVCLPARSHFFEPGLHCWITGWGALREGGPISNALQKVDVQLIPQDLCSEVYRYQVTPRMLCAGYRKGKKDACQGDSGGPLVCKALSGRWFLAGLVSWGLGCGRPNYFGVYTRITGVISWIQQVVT

T2: mouse matriptase-2 ECD protein his tag (mouse, UniProt Q9DBI0 80-811)
T2 sequence: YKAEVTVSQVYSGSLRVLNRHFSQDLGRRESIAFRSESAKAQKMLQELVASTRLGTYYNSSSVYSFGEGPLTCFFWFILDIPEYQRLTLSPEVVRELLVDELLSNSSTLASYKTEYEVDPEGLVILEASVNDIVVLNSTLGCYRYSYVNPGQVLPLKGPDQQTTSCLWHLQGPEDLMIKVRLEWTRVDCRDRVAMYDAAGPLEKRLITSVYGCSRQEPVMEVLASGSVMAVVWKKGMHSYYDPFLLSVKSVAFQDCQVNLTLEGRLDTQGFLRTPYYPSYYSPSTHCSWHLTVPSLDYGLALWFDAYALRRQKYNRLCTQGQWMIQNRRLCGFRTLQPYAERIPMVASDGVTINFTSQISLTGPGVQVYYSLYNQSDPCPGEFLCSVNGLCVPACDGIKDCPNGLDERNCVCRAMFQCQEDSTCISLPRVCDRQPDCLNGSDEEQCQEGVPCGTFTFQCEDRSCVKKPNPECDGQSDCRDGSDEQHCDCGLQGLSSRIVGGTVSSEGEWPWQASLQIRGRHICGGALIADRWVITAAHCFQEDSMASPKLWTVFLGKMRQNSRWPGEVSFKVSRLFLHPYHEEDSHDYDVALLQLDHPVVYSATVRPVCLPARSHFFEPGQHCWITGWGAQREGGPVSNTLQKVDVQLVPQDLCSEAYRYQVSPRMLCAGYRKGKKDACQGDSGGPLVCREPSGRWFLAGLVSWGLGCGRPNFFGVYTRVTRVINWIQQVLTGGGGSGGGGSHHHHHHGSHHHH

T3: human matriptase-2 ECD protein his tag (human, UniProt Q8IU80 78-811)
T3 sequence: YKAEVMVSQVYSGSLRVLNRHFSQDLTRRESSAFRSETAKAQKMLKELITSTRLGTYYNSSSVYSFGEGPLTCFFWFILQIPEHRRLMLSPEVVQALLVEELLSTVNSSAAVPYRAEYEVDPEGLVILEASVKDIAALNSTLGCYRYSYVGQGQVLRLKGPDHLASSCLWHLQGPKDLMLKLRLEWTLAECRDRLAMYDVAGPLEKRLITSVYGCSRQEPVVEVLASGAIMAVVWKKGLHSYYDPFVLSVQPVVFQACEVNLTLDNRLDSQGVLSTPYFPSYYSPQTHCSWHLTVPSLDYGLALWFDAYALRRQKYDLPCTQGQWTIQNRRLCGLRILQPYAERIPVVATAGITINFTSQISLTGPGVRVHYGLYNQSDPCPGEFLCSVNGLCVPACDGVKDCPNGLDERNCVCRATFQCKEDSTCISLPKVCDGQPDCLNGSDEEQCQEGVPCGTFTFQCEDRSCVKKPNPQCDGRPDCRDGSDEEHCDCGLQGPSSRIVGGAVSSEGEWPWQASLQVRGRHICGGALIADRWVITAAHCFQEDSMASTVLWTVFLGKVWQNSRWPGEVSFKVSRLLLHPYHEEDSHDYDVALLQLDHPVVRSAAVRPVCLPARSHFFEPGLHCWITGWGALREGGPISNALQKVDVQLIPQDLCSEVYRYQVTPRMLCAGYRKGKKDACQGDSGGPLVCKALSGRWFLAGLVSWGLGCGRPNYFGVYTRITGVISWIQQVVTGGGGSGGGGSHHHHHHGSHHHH

B1: NORI-025 (antibody, human IgG4 S228P, lambda, V domains shown)
VH: QVQLVESGGGVVQPGRSLRLSCTASGVTFTNFDMHWVRQTPGKGLEWVAVIWYDESYSYYADSVQGRFTISRDNSKNSLYLQMNSLRADDTAVYYCARGWTGSYVFDYWGQGTLVTVSS
VL: QSVLTQPPSVSEAPRQRVTISCSGSSSNIGNNAVNWYQQLPGKAPKLLISYDDLLPSGVSDRFSGSKSGTSASLAISGLQSADEADYYCAAWDDSLNAVVFGGGTKLTVLG
B2: NORI-030 (antibody, human IgG4 S228P, lambda, V domains shown)
VH: QVQLVESGGGVVQPGRSLRLSCAASGFTFSNFDMDWVRQAPGRGLEWVALISYDGSKKYYADSVKGRFTISRDNSKNTLYLQMNSLRGEDTAVYFCAKEGYGGYDGFDYWGQGTLVTVSS
VL: B1 VL with S26T, D53Y, L54V, L55V, P56S, A90S, A91T, S95G, A98G
B3: NORI-026 (antibody, human IgG4 S228P, kappa, V domains shown)
VH: QVQLVESGGGVVQPGRSLRLSCAASGFTFSYFGMHWVRQAPGKGLEWVADISYDGSDENYADSVKGRFTISRDNSKNTLSLQMNSLRAEDTAVYYCAKETYQSLMYLEYWGQGILVTVSS
VL: AIQMTQSPSSLSASVGDRVTITCRASQDIRNDLGWYQQKPGKAPKLLIYTAPSLQSGVPSRFSGSGSGTDFTLTIGSLQPEDFATYYCLQDYNYPWTFGQGTKVEIKR
B4: NORI-023 (antibody, human IgG4 S228P, lambda, V domains shown)
VH: QVQLVESGGGLVKPGGSLRLSCAASGFTFSDYYMSWIRQAPGKGLEWVSYISSSGGNRYYADSVKGRFTISRDNAKNSLYLQMNSLRAEDTAVYYCARGGLRYFDWADFWGQGTLVTVSS
VL: QSVLTQPPSVSAAPGQKVTISCSGSSSNIGNNYVSWYQQLPGTAPKLLIYDNNKRPSGIPDRFSGSKSGTSATLGIPELQTGDEADYYCGTWDNSLSAGVFGGGTKLTVLG
B5: NORI-031 (antibody, human IgG4 S228P, lambda, V domains shown)
VH: QLQLQESGPGLVKPSETLSLTCTVSGGAISSSNYFWGWIRQSPGKGLEWIGSMYYTGITYYNPSLKSRVTISVDTSKNQLSLKVNSVTAADTAVYYCARQDGFRTGWFDPWGQGTLVTVSS
VL: SYELTQPPSVSVSPGQTATLTCSGDKLGDNYVCWFQQKPGQSPLLVMYQDTKRPSGIPERFSGSNSGNTATLTISGTQALDEADYYCQAWDSRTVVFGGGTKLTVLG
B6: NORI-024 (antibody, human IgG4 S228P, lambda, V domains shown)
VH: QVQLVQSGPELKKPGASVKVSCKASGYTFTNFGISWVRQAPGQGLEWMGWISAYSGFTNFAQKFQGRVSMTTDTSTSTVYMELKSLRSDDTAVYYCAREGYSNYEDWFDPWGQGTLVTVSS
VL: SYELTQPPSVSVSPGQTARITCSGDALPKKYAYWYQQKSGQAPVLVIYEDSKRPSGIPERISGSNSGTMATLTISGAQVEDEADYYCYSTDSSGNHRVFGGGTKLTVLG
B7: NORI-027 (antibody, human IgG4 S228P, lambda, V domains shown)
VH: B6 VH with P9A, T30N, F32Y, F57Y, F60I, S69T, S77N, K84G, Y104F
VL: B6 VL with A26E
B8: NORI-028 (antibody, human IgG4 S228P, lambda, V domains shown)
VH: EVQLVESGGAVVRPGGSLRLSCAISGFILDDYGMNWVRQGPGKGLEWVAGISWNGDSTRYADSVKGRFTISRDNAQNSLYLQMNSLRAEDTALYFCAREYSGDFYYYYYGMDVWGQGTTVTVSS
VL: QSALTQPPSASGSPGQSVTISCTGTSSDVGFYNFVSWYQHHPGKAPKLMIYEVSKRPSGVPDRFSGSKSANTASLTVSGLQAEDEADYYCSSYAGSNNLVFGGGTKLTVLG
B9: NORI-029 (antibody, human IgG4 S228P, lambda, V domains shown)
VH: EVQLVESGGGLVKPGRSLRLSCTASGFTFGDYVMSWFRQAPGKGLEWVGFIRSKPYSETTEYAASVRGRFTISRDDSKSIAYLQMNSLKTEDTAVYYCTRALYDLLTGPWMGGDYFYALDVWGQGTTVTVSS
VL: B8 VL with F31D, F34Y, H40Q, A70G, S91K
B10: NORI-022 (antibody, human IgG4 S228P, lambda, V domains shown)
VH: EVRLVESGGGLVQSGGSLRLSCAASGFTFSTYTMNWVRQAPGKGLEWVSYISIRNSIIDYADSVKGRFTISRDNAKNSLYLQMNSLRDEDTAVYYCAREEFCGTTSCYFLDYWGQGILVTVSS
VL: QSVLTQPPSVSGAPGQRVTISCTGSSSNIGAGYDVHWYQQLPGTAPKLLIYGNSNRPSGVPDRFSGSKSGTSASLAITGLQAEDEADYYCQSYDSSLSGYVFGTGTKVTVLG

Biological target: T1, human MTP-2 expressed on HEK293 cells
Assay: cell-based or functional assay

Binder | Inhibition enzymatic activity human MTP2 on cells (IC50) [nM]
B1 | 1.88
B2 | 0.227
B3 | 0.817
B4 | 13.2
B5 | 3.51
B6 | 8.04
B7 | 16.9
B8 | 3.85
B9 | 0.243
B10 | 0.765

Biological target: T2, mouse matriptase-2 ECD protein his tag
Assay: cell-based or functional assay

Binder | Inhibition enzymatic activity mouse MTP2 protein (IC50) [nM]
B1 | 6.21
B2 | 6.66
B3 | 6.22
B4 | 2.92
B5 | 27
B6 | 6.8
B7 | 40.8
B8 | 8.96
B9 | 9.35
B10 | 2.98

Biological target: T3, human matriptase-2 ECD protein his tag
Assay: cell-based or functional assay

Binder | Inhibition enzymatic activity human MTP2 protein (IC50) [nM]
B1 | 3.27
B2 | 1.88
B3 | 5.11
B4 | 5.45
B5 | 10.3
B6 | 10.5
B7 | 24.9
B8 | 11.8
B9 | 2
B10 | 4.36
